Consider 2 substances from publication PMC11831497.

Holding throughout (settings): glycan lost; control: CTSD WT
Data set [1] is described as follows: CTSD secretion from CRC cells.
Data set [2] can be described thus: fluorogenic Cathepsin D activity kit, cell lysate.
Data set [3] is described as follows: immunofluorescence co-localisation with EEA1, Rab7, LAMP1, SW480.
The nature of data set [4]: western blot. (A western blot detects proteins with antibodies after separation by electrophoresis.)
Data set [5] is described as follows: cycloheximide chase, western blot.
Data set [6] can be described thus: western blot at equal CTSD expression, SW480.

Take Cathepsin D (CTSD): N263Q/N134Q: the expression_or_secretion entry in data set [1] is recorded as “increases”. For the same substance, the enzymatic_activity entry in data set [2] is listed as “decreases”. Moreover, the localisation_or_trafficking entry in data set [3] is listed as “abolishes”.
For the substance Cathepsin D (CTSD): N263Q, the “other: ferroptosis protein levels (SLC7A11, GPX4)” value in data set [4] was “decreases”. The expression_or_secretion entry in data set [1] was “decreases”. Also, in data set [5], the degradation_or_half_life entry is given as “decreases”. For the same substance, the “other: cellular level of substrate ACADM” value in data set [6] is on record as “increases”. Also, the enzymatic_activity entry in data set [2] is “decreases”. The localisation_or_trafficking entry in data set [3] is on record as “abolishes”.
